{"source": "paper PMC10904395", "about": "“The Deinococcus protease PprI senses DNA damage by directly interacting with single-stranded DNA”", "biological_target": "T1, DG-PprI patch 1 mutant (Deinococcus geothermalis, UniProt Q1J1D6 1-289, R85A;R207A;R267A)", "T1 sequence": "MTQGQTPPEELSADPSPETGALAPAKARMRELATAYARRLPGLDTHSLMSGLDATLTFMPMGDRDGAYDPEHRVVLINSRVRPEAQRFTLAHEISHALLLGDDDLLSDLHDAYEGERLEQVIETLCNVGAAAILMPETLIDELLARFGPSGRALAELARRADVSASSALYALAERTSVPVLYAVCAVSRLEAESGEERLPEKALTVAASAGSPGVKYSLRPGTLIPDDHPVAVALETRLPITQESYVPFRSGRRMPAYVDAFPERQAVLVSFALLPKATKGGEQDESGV", "assay": "EMSA; EMSA: 150 mM NaCl, 20 mM Tris-HCl pH 8.0, 0.1 mg/ml BSA, 0.1 uM FAM-labeled nucleic acid, 0/1/2 uM protein, room temperature 30 min, 10% native PAGE in 1x TB", "conditions": "protein: recombinant; label: 5' FAM"}
{"binder": "CGCTCTTCGCCATTCTCTTGAAGTTTCAAACTTGG (ssDNA)", "note": "[35nt ssDNA]", "values": [{"measurement": "binding result", "value": "no binding"}]}
